In the assay the target is peptide 24.end. The assay can be described thus: ELISA on coated peptide 24.end, A450 [B]. (In general: In an ELISA, binding on a coated surface is turned into a signal by an enzyme label.)

B1: 2.6h11 (antibody, V domains shown)
VH: EVQLVESGGGLVQPGRSLRLSCTASGFTFGDYVMSWFRQAPGKGLEWVGFIRSKAHGGTTEYAASVNGRFSISRDDSKTIAYLQMNSLKSEDTAVYYCTWLRNDYYYGMDVWGLGTTVTVSS
VL: DIMMTQSPLSLPVTPGEPASISCRSSQRLLHSNGYSYVDWYLQKPGQSPQLLIYLGSDRASGVPDRFSGSGSGTDFTLKISRVEAEDVGVYYCMQTLQTPWTFGQGTKVEIKR
Turning to B1, the binding result is reported as “no binding”.

The values above are taken from patent publication US20220275059A1 (HARBOUR ANTIBODIES, published 2022).
